Measured values taken from publication PMC12732409.

Target: hyaluronidase from bovine testes (bovine)

hyaluronidase inhibition rate (enzyme activity on hyaluronic acid, absorbance at 600 nm) at 500 μM sample, 1 U/mL hyaluronidase: 91%
Substance: NGT-M002 (pvFP-5; Perna viridis foot protein-5) (natural protein)
